Measurements reported in the supplement of paper PMC12764529.
± gives the half width of the 95% confidence interval.

Experiments:
[1] = folding stability dG unfold from trypsin proteolysis; higher = more stable
Method in brief: (§1)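 Unfolding free energy was derived, per protease or combined, by relating Bayesian-fitted K50 values from sequencing counts to a sequence-predicted unfolded-state K50 and a shared folded-state K50. The underlying digests exposed cysteine-free mini-proteins under 80 residues, in a PA-tagged cDNA display construct, to trypsin and chymotrypsin at 11 threefold-diluted concentrations and to a no-protease condition. A filter kept only designs with AlphaFold2 dimer inter-PAE above 15.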

[2] = folding stability dG unfold from chymotrypsin proteolysis; higher = more stable
Method in brief: as §1

[3] = folding stability dG unfold (combined trypsin and chymotrypsin); higher = more stable
Method in brief: as §1

Sequence | folding stability dG unfold [1] | folding stability dG unfold [2] | folding stability dG unfold [3]
SFNISVSVEPDDDKYKVTIWIQVDPEEFPGQPPTPSVIEEIARELARDWGIKEVEIEPPPNGYYRHTFPLSA [r9_883_TrROS] | 1.33 ± 0.032 kcal/mol | 2.25 ± 0.057 kcal/mol | 1.88 ± 0.1 kcal/mol
SFTPEQVKDIAKTIANRMYDNGYEVEVDVEVEPVNNMPYVEIEFEWRDPDGQPWKFEIIIHPDGDIEIYPSA [r9_1027_TrROS] | 1.28 ± 0.16 kcal/mol | 2.7 ± 0.065 kcal/mol | 2.43 ± 0.21 kcal/mol
SFTVERNVYRIENPPKLVVNVIITAEDGTPVPPEVVEEAVRELEKAGFPVKKVSVTPLPDGSVLVTVEVDVS [r1_408_TrMRF] | 2.84 ± 0.1 kcal/mol | 2.13 ± 0.071 kcal/mol | 2.52 ± 0.083 kcal/mol
SGATLFIGRFPGEGTLIAVAKLPNGKEIVISFGNYPEGIAGIAALARELDPRAEIKHIELVPPDSVPPEFSA [r9_137_TrMRF] | 1.37 ± 0.038 kcal/mol | 1.49 ± 0.11 kcal/mol | 1.45 ± 0.11 kcal/mol
SGATVTVSKDGRTYTVTVSPNATVTVEVRDPTSTSTYTQTVPPGQPTTVSLPLPSDVSSSVTIASIDVGASA [r9_1152_JUSTAS] | 0.439 ± 0.025 kcal/mol | 0.656 ± 0.088 kcal/mol | 0.592 ± 0.072 kcal/mol
SGFKVYIPDADLDAAVAVAKALVEKGYDTLLVDSPEVLKAIKEAIPDVKVEPVPVLPPVPPLPGEAEALFSA [r9_639_TrMRF] | 0.71 ± 0.021 kcal/mol | 0.573 ± 0.092 kcal/mol | 0.684 ± 0.076 kcal/mol
SGFTFSTLIAPDESLSITVKEPNSSTTTSFDFTVDPATGAVSATATTTPPDGKTQTFSVTIPVSPGAAALSA [r9_770_JUSTAS] | 1.02 ± 0.08 kcal/mol | 0.924 ± 0.18 kcal/mol | 0.973 ± 0.11 kcal/mol
SGKDTLILELVLEVDSEEQAQAIRDIFEALGYKVEVRVFPLPDGLIVFVRVEVPVPPPPPSLEDPELLAKSA [r9_863_TrMRF] | 1.92 ± 0.092 kcal/mol | 2.75 ± 0.028 kcal/mol | 2.57 ± 0.15 kcal/mol
SGKKKIKIYVESIEVFEDGVVKIKVKAIFPDGSEEDVIAEIRVEPDEDGRPHLLVVIRIGDKDFLLVLDASA [r9_271_TrMRF] | 2.81 ± 0.11 kcal/mol | 3.15 ± 0.059 kcal/mol | 2.96 ± 0.17 kcal/mol
SGLKPNEVKKFTFSFPVTDPVTGKEVTATVELYVSAGNPFVVVKLTVTPPDGKTETKTFVVPPGATLTIDSA [r9_88_TrMRF] | 1.73 ± 0.054 kcal/mol | 3.598 ± 0.028 kcal/mol | 3.2 ± 0.17 kcal/mol
SGLPEELARKLGLSAMTPLPDGTLVMALPDGTRVVVRIETTEVRLSPLGEPAVEVEVEVERLPAPAPEAASA [r9_648_JUSTAS] | 1.5 ± 0.027 kcal/mol | 1.67 ± 0.018 kcal/mol | 1.6 ± 0.048 kcal/mol
SGLTLTLPVAPDEELKLTLKLPNTDETVEVEAETVAETGDVFAVAVATPPNGDKKVVPAVIKVEPGEPDESA [r9_770_TrMRF] | 0.704 ± 0.038 kcal/mol | 0.332 ± 0.16 kcal/mol | 0.642 ± 0.12 kcal/mol
SGLTNLRVEAELVPPGVLRVTFTEGGKPVYELTFTVVVPAPPVVEPVLLPNGVPALVVYDPATGKPVVYPSA [r9_343_TrMRF] | 2.17 ± 0.13 kcal/mol | 3.27 ± 0.11 kcal/mol | 2.86 ± 0.08 kcal/mol
SGMDTVTPTTSTTQYFVEPNPEPVLSISTTTDTTTDPANPGVVTVTTTTTITDPRTGTTTTTPTTTTVPASA [r9_342_JUSTAS] | 0.142 ± 0.019 kcal/mol | -0.564 ± 0.14 kcal/mol | -0.146 ± 0.18 kcal/mol
SGMERTPLTPTETVTLTIPPGSLTITPTASPGPLTVTVTVPGSGTPTVVELPVEAPDLDAALAAVVAALQSA [r9_982_JUSTAS] | 0.787 ± 0.04 kcal/mol | 1.39 ± 0.078 kcal/mol | 1.12 ± 0.056 kcal/mol
SGMIKVSVEEKELKDGTKLYTITVEHPDPEVAKETAEKIVKEKFPKNYKVETKLTESGKVIAPVIVPKKKSA [r9_646_JUSTAS] | 0.379 ± 0.09 kcal/mol | 1.1 ± 0.15 kcal/mol | 0.9 ± 0.2 kcal/mol
SGMKSVTTPVSLTINTSPEEAEEFIEKLAKERGIEDVTVVKVTTDPATGTLTVEAELHTTIPPLPPPSSVSA [r9_918_JUSTAS] | 1.07 ± 0.044 kcal/mol | 1.17 ± 0.061 kcal/mol | 1.1 ± 0.27 kcal/mol
SGMPTVTLNVTIEFERERLSFDPKTGKPRLELVKVTKPVTITGFFTSPEEAAAAAEAVRKALEADPEALASA [r9_77_JUSTAS] | 1.7 ± 0.068 kcal/mol | 2.37 ± 0.034 kcal/mol | 2.07 ± 0.084 kcal/mol
SGMTIKILEVDFNPLGEEDEKATITLKAEIGGEEVELKIEVYRRPDGSAIAKITLILPGSGEPFEITADISA [r9_241_TrMRF] | 2.61 ± 0.11 kcal/mol | 4.16 ± 0.13 kcal/mol | 3.91 ± 0.17 kcal/mol
SGMTVTPVTHPNGQTLTLTFDPETGTVTVNRSPAISLEEVKAALEALIPSDRSVTVSTLPDGTAAVTLTASA [r9_933_JUSTAS] | 1.36 ± 0.04 kcal/mol | 1.06 ± 0.1 kcal/mol | 1.27 ± 0.059 kcal/mol
SGPAEGFEAELVEEYTLPETERVFVYRVTHPDGTEYVLVVVRNPDGTWEPVFVYRPDDPDALREALELLGSA [r9_1069_TrMRF] | 3.11 ± 0.081 kcal/mol | 3.595 ± 0.022 kcal/mol | 3.47 ± 0.057 kcal/mol
SGPIAELVKAHPGVPVEDLAKAIVDALKAQLPKDVPITVDAEVTPDGIKLNVTVEGDTEPFTFPFVVKPGSA [r9_805_TrMRF] | 0.879 ± 0.024 kcal/mol | 1.34 ± 0.038 kcal/mol | 1.2 ± 0.043 kcal/mol
SGREEEIAEELREKLLAEGYTEVEVEIEVRPDPNSDNVLVTVTVRATKKDAEGNWKTYEETIPVLIPAEASA [r9_440_JUSTAS] | 3.12 ± 0.26 kcal/mol | 3.23 ± 0.15 kcal/mol | 3.11 ± 0.25 kcal/mol
SGSMTLVSESTVPEKGTTLLTLKFPNGAPATVTLNPDGSSTTTFPATGLPFTVTVGSGTLTVTTPAALALSA [r9_233_JUSTAS] | 1.01 ± 0.1 kcal/mol | 1.42 ± 0.12 kcal/mol | 1.23 ± 0.18 kcal/mol
SGSSYLPLEDVKTEWKKNPNSDVYNYTTFLQTPSGEPISVTYDPKTGKITFNLPPGTTWRPGKKSEVKLESA [r9_509_JUSTAS] | 0.124 ± 0.16 kcal/mol | 1.13 ± 0.23 kcal/mol | 0.864 ± 0.16 kcal/mol
SGVEYIEIPLEVTLDAPLEKAFEFLEDLAEEFGLGDIEVLEVEVDPETGKVRVKALARIAIAPPPPPSLESA [r9_918_TrMRF] | 2.83 ± 0.044 kcal/mol | 3.53 ± 0.11 kcal/mol | 3.19 ± 0.17 kcal/mol
SGVLVVTHPDGSVSTVPFTHPDGLVVDISAGVDAPLYATVVRLLPDGTPEPLPVFEFDSIEDVLEALAEASA [r9_942_TrMRF] | 0.545 ± 0.016 kcal/mol | 1.983 ± 0.014 kcal/mol | 1.61 ± 0.023 kcal/mol
